Source: paper PMC6167435, “Genetic Removal of the CH1 Exon Enables the Production of Heavy Chain-Only IgG in Mice” (Frontiers in Immunology, 2018)
Substitutions are numbered along the chain they refer to. Blank lines part the entries; values can stand above or below the molecule they belong to.

What was measured:
[1] = target: IgG1 heavy chain of HG1 mice (γ1 CH1 exon deleted) (mouse (endogenous in serum of HG1 mice)); assay: SDS-PAGE under non-reducing conditions with Western blotting; serum of HG1 and WT mice; detected with HRP-conjugated goat anti-mouse IgG1 heavy chain; association judged from molecular weights (covalent association)
[2] = target: ovalbumin (Gallus gallus (chicken), , UniProt P01012)
Chain of ovalbumin (P01012 whole entry): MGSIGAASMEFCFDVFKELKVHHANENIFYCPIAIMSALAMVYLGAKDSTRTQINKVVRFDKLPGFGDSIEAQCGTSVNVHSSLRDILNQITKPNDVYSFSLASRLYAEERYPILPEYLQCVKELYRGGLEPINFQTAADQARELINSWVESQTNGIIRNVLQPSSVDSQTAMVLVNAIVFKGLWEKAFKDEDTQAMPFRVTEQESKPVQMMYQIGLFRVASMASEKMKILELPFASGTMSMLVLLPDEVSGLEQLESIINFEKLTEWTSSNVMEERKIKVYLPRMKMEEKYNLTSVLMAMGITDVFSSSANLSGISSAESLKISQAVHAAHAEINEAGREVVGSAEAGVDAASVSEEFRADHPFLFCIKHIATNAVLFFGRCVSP

stoichiometry N [1]: 2
Molecule: IgG1 heavy chain of HG1 mice (γ1 CH1 exon deleted)

binding result [2]: binds
B1: 3A-1 (VHH)
VHH: EVKLVESGGDLVKPGGSLKLSCAASGFTFSSYGMSWIRQTPDKRLEWVATISSGGSYTYYPDSVKGRFTISRDNAKNTLYLQMSSLKSEDTAMYYCARRGRYDDTMDYWGQGTTVTVSS

binding result [2]: binds
B2: 3A-31 (VHH)
VHH: B1 VHH with I37V, N77S, R101K, V115L

binding result [2]: binds
B3: 3A-2 (VHH)
VHH: B1 VHH with V115L

binding result [2]: binds
B4: 3A-9 (VHH)
VHH: B1 VHH with S84G, T114S, V115L

binding result [2]: binds
B5: 3A-3 (VHH)
VHH: B1 VHH with K76E, T114S, V115L

binding result [2]: binds
B6: 3A-6 (VHH)
VHH: B1 VHH with A23V

binding result [2]: binds
B7: 3A-20 (VHH)
VHH: B1 VHH with K3Q, V5E
